Source: IntAct's records for PubMed 32296183

B1: Ceroid-lipofuscinosis neuronal protein 6 (Homo sapiens), Q9NWW5 (parent)
chain: MEATRRRQHLGATGGPGAQLGASFLQARHGSVSADEAARTAPFHLDLWFYFTLQNWVLDFGRPIAMLVFPLEWFPLNKPSVGDYFHMAYNVITPFLLLKLIERSPRTLPRSITYVSIIIFIMGASIHLVGDSVNHRLLFSGYQHHLSVRENPIIKNLKPETLIDSFELLYYYDEYLGHCMWYIPFFLILFMYFSGCFTASKAESLIPGPALLLVAPSGLYYWYLVTEGQIFILFIFTFFAMLALVLHQKRKRLFLDSNGLFLFSSFALTLLLVALWVAWLWNDPVLRKKYPGVIYVPEPWAFYTLHVSSRH
B2: Very-long-chain enoyl-CoA reductase (Homo sapiens), Q9NZ01 (parent)
chain: MKHYEVEILDAKTREKLCFLDKVEPHATIAEIKNLFTKTHPQWYPARQSLRLDPKGKSLKDEDVLQKLPVGTTATLYFRDLGAQISWVTVFLTEYAGPLFIYLLFYFRVPFIYGHKYDFTSSRHTVVHLACICHSFHYIKRLLETLFVHRFSHGTMPLRNIFKNCTYYWGFAAWMAYYINHPLYTPPTYGAQQVKLALAIFVICQLGNFSIHMALRDLRPAGSKTRKIPYPTKNPFTWLFLLVSCPNYTYEVGSWIGFAIMTQCLPVALFSLVGFTQMTIWAKGKHRSYLKEFRDYPPLRMPIIPFLL
partner: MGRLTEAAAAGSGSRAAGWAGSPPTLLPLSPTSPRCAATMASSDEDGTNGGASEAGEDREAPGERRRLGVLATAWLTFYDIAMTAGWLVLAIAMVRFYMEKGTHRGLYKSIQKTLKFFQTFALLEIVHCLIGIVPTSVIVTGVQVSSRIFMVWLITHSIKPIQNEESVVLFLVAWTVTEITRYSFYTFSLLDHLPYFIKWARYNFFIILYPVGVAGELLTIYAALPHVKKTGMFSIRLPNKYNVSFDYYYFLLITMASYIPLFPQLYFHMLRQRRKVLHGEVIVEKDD
B3: Catenin alpha-3 (Homo sapiens), Q9UI47-2 (parent)
chain: MSAETPITLNIDPQDLQVQTFTVEKLLEPLIIQVTTLVNCPQNPSSRKKGRSKRASVLLASVEEATWNLLDKGEKIAQEATVLKDELTASLEEVRKESEALKVSAERFTDDPCFLPKREAVVQAARALLAAVTRLLILADMIDVMCLLQHVSAFQRTFESLKNVANKSDLQKTYQKLGKELENLDYLAFKRQQDLKSPNQRDEIAGARASLKENSPLLHSICSACLEHSDVASLKASKDTVCEEIQNALNVISNASQGIQNMTTPPEPQAATLGSALDELENLIVLNPLTVTEEEIRPSLEKRLEAIISGAALLADSSCTRDLHRERIIAECNAIRQALQDLLSEYMNNAGKKERSNTLNIALDNMCKKTRDLRRQLRKAIIDHVSDSFLDTTVPLLVLIEAAKNGREKEIKEYAAIFHEHTSRLVEVANLACSMSTNEDGIKIVKIAANHLETLCPQIINAALALAARPKSQAVKNTMEMYKRTWENHIHVLTEAVDDITSIDDFLAVSGMFLFF
partner: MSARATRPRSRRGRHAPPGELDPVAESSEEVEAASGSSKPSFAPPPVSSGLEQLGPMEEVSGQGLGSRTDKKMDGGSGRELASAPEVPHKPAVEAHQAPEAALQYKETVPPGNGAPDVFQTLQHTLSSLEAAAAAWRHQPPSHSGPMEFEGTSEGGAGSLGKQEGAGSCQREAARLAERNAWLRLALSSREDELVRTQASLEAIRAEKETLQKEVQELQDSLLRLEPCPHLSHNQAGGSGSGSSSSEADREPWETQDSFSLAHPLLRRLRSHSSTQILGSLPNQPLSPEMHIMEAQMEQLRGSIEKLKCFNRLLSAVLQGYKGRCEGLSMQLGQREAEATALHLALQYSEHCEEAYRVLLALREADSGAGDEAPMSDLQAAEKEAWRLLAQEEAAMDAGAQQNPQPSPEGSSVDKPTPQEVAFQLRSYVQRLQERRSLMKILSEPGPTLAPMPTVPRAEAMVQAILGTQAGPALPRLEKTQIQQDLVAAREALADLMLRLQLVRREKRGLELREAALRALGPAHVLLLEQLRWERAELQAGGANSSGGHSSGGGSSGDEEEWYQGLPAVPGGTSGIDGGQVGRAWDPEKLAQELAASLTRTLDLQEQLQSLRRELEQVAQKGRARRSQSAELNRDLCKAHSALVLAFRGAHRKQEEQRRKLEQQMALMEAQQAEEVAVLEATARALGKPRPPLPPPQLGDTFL
B4: Golgi SNAP receptor complex member 2 (Homo sapiens), O14653 (parent)
chain: MDPLFQQTHKQVHEIQSCMGRLETADKQSVHIVENEIQASIDQIFSRLERLEILSSKEPPNKRQNARLRVDQLKYDVQHLQTALRNFQHRRHAREQQERQREELLSRTFTTNDSDTTIPMDESLQFNSSLQKVHNGMDDLILDGHNILDGLRTQRLTLKGTQKKILDIANMLGLSNTVMRLIEKRAFQDKYFMIGGMLLTCVVMFLVVQYLT
partner: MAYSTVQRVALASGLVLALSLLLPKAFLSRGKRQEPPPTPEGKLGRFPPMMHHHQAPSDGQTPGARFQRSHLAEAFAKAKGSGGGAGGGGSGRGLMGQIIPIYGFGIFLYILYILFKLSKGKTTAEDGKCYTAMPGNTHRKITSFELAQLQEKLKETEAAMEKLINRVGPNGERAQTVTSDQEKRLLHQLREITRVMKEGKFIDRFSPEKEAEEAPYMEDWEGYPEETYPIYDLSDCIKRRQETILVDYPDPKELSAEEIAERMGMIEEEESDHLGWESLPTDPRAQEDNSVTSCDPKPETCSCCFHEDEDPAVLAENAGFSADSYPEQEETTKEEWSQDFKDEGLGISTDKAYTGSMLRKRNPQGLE
B5: Catenin alpha-3 (Homo sapiens), Q9UI47-2 (parent)
chain: B3 chain
partner: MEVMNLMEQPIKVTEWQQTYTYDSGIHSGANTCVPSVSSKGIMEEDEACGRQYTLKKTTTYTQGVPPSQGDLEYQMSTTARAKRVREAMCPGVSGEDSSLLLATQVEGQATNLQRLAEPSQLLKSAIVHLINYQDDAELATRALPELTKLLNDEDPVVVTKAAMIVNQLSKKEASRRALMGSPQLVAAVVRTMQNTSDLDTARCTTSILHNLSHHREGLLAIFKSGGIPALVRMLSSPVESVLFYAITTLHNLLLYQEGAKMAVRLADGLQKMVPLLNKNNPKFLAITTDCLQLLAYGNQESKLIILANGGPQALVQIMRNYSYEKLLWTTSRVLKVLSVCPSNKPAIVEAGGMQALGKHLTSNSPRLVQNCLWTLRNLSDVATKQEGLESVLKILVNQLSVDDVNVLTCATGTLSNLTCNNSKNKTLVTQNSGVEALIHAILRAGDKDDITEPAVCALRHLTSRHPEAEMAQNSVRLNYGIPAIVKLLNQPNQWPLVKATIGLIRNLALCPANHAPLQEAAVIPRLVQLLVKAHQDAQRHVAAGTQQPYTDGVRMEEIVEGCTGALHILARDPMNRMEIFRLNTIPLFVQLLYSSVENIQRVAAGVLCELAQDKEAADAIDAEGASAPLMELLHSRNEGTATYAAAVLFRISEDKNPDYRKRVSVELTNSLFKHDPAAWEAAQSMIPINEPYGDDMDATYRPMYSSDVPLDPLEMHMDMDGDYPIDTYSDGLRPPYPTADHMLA

Variants of: B1
Conditions: with stx1a_human STX1A

| Variant | effect of a mutation on the interaction |
| --- | --- |
| G123D | with no effect |

Variants of: B1
Conditions: with ar13b_human ARL13B

| Variant | effect of a mutation on the interaction |
| --- | --- |
| G123D | with no effect |

Variants of: B1
Conditions: with cxa8_human GJA8, P48165
cxa8_human GJA8, P48165, sequence (P48165 whole entry): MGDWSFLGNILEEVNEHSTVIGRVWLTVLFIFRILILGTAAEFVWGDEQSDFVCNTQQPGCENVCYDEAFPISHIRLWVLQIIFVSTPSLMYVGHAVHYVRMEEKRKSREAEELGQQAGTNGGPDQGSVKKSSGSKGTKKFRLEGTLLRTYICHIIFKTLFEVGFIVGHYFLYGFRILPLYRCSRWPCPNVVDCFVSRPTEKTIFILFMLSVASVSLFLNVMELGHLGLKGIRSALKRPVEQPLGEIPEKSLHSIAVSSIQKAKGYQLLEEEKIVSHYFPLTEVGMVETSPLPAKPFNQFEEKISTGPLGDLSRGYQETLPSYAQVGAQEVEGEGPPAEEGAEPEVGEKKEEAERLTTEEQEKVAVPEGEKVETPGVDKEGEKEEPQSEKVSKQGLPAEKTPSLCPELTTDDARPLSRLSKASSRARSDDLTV

| Variant | effect of a mutation on the interaction |
| --- | --- |
| G123D | with no effect |

Variants of: B1
Conditions: with ki2l3_human KIR2DL3, P43628
ki2l3_human KIR2DL3, P43628, sequence (P43628 whole entry): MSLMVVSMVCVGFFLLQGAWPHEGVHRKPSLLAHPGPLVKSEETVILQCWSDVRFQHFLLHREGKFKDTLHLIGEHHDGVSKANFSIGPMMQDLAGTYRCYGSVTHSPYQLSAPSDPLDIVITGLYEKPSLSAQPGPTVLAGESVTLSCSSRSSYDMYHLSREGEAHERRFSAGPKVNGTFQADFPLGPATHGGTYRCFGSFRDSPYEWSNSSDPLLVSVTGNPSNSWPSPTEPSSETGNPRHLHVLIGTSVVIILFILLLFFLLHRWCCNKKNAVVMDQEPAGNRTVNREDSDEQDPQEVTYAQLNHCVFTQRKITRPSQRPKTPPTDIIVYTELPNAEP

| Variant | effect of a mutation on the interaction |
| --- | --- |
| G123D | with no effect |

Variants of: B1
Conditions: with lrc25_human LRRC25, Q8N386
lrc25_human LRRC25, Q8N386, sequence (Q8N386 whole entry): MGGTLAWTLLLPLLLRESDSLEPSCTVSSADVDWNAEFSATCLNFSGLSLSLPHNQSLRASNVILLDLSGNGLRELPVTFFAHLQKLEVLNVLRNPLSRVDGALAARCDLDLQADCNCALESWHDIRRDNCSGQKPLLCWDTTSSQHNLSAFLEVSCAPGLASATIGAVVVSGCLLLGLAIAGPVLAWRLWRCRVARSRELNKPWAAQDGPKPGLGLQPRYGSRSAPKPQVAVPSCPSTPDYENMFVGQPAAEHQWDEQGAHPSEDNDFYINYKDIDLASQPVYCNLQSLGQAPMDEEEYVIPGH

| Variant | effect of a mutation on the interaction |
| --- | --- |
| G123D | with no effect |

Variants of: B1
Conditions: with tm139_human TMEM139, Q8IV31
tm139_human TMEM139, Q8IV31, sequence (Q8IV31 whole entry): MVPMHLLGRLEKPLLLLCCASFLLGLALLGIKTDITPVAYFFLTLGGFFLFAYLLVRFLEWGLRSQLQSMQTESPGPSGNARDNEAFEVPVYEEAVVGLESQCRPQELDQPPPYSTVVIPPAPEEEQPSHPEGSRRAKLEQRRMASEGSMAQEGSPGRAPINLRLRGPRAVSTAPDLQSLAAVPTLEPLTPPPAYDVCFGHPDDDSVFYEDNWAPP

| Variant | effect of a mutation on the interaction |
| --- | --- |
| G123D | with no effect |

Variants of: B2
Conditions: with hacd1_human HACD1, B0YJ81

| Variant | effect of a mutation on the interaction |
| --- | --- |
| P182L | disrupting interaction strength |

Variants of: B3
Conditions: with usbp1_human USHBP1, Q8N6Y0

| Variant | effect of a mutation on the interaction |
| --- | --- |
| V94D | disrupting interaction strength |

Variants of: B4
Conditions: with RIC3, Q7Z5B4-5

| Variant | effect of a mutation on the interaction |
| --- | --- |
| G144W | disrupting interaction strength |

Variants of: B5
Conditions: with plak_human JUP

| Variant | effect of a mutation on the interaction |
| --- | --- |
| V94D | disrupting interaction strength |
